# From US11535650 (RA PHARMACEUTICALS, dated 2022)
# Starred links: 1 amine or outer side, 2 acyl side, 3 side chain; linkers in the order of their positions; H or OH if unused. Positions of bridges follow the written chain, without caps; N, C: chain ends. Non-standard residues stand in square brackets, D forms with d. Primed or numbered codes have the meaning given here. No end group written: not given here. *: point of attachment. mXylyl(3) = bridging moiety between the two residues given in brackets; Phe(3-CH2NH2) = O=C([C@H](Cc1cccc(CN[*:3])c1)N[*:1])[*:2]; Trp(7-aza) = N[C@@H](Cc1c[nH]c2ncccc12)C(=O)O; mXylyl(4) = bridging moiety between residues; hPhe(3-Cl) = N[C@@H](CCc1cccc(Cl)c1)C(=O)O; ivDde = CC(C)CC(=C1C(=O)CC(C)(C)CC1=O)*; 2Nal = N[C@@H](Cc1ccc2ccccc2c1)C(=O)O; hPhe = N[C@@H](CCc1ccccc1)C(=O)O; NMeD = CN[C@@H](CC(=O)O)C(=O)O; dChg = N[C@@H](C(=O)O)C1CCCCC1; Chg = N[C@H](C(=O)O)C1CCCCC1; Phg = N[C@H](C(=O)O)c1ccccc1; Tle = CC(C)(C)[C@H](N)C(=O)O; NMeS = CN[C@@H](CO)C(=O)O; Ac5c = NC1(C(=O)O)CCCC1; Nva = CCC[C@H](N)C(=O)O; Thp = NC1(C(=O)O)CCOCC1; Aib = CC(C)(N)C(=O)O
# Molecular target: T1, human C5 protein (human, UniProt P01031 19-673; P01031 678-1676)
# Test: cell-based or functional assay
row,Binder,"Avg. IC50, human hemolysis assay (complete human sera)"
1,Ac-[Nva]C[Phg]T[Trp(7-aza)]EF[NMeS]AC[Nva]-NH2 (linker 2-10 via mXylyl(4)) [R3100],626 nM
2,Ac-[Nva]C[Phg]TWEY[NMeS]AC[Nva]-NH2 (linker 2-10 via mXylyl(4)) [R3091],483 nM
3,Ac-[Chg]C[Phg]T[Trp(7-aza)]EY[NMeS]AC[Nva]-NH2 (linker 2-10 via mXylyl(4)) [R3089],> 15000 nM
4,Ac-[Nva]C[Phg]TFEY[NMeS]AC[Nva]-NH2 (linker 2-10 via mXylyl(4)) [R3092],> 50000 nM
5,Ac-[Nva]C[Phg]T[Trp(7-aza)]E[hPhe][NMeS]AC[Nva]-NH2 (linker 2-10 via mXylyl(4)) [R3095],> 50000 nM
6,Ac-[Nva]C[Phg]T[Trp(7-aza)]DY[NMeS]AC[Nva]-NH2 (linker 2-10 via mXylyl(4)) [R3097],> 100000 nM
7,Ac-[Nva]CFT[Trp(7-aza)]EY[NMeS]AC[Nva]-NH2 (linker 2-10 via mXylyl(4)) [R3090],> 100000 nM
8,Ac-[Nva]C[Phg]T[Trp(7-aza)]QY[NMeS]AC[Nva]-NH2 (linker 2-10 via mXylyl(4)) [R3098],> 100000 nM
9,Ac-[Nva]C[Phg]T[Trp(7-aza)]NY[NMeS]AC[Nva]-NH2 (linker 2-10 via mXylyl(4)) [R3099],> 100000 nM
10,Ac-[Nva]C[Phg][Aib][Trp(7-aza)]EY[NMeS]HC[Nva]-NH2 (linker 2-10 via mXylyl(3)) [R3096],> 50000 nM
11,Ac-[Nva]C[dChg]T[Trp(7-aza)]EY[NMeS]AC[Nva]-NH2 (linker 2-10 via mXylyl(4)) [R3093],> 100000 nM

# Molecular target: T1, human C5 protein
# Test: cell-based or functional assay
# Remark: another data set of the same source
row,Binder,"Avg. IC50, hemolysis assay (C5 depleted sera + purified human C5)"
1,Ac-CVERFC[Ac5c][Tle]Y[Trp(7-aza)]EYP[Chg][Nva] (linker 1-6 via mXylyl(3)) [R3185],12.5 nM
2,Ac-KVERFD[NMeD][Tle]Y[Trp(7-aza)]EYP[Chg]K(C16)-NH2 (lactam 1-6) [R3194],15.5 nM
3,Ac-CVERFCD[Tle]Y[Trp(7-aza)]E[2Nal]P[Chg][Nva] (linker 1-6 via mXylyl(3)) [R3180],29 nM
4,[(desamino)Cys]VERFC[NMeD][Tle]Y[Trp(7-aza)]EYP[Chg]K(C16) (bridge 1-6) [R3198],142 nM
5,Ac-KVERFD[NMeD][Tle]YWEYP[Chg]K(ivDde) (lactam 1-6) [R3197],4 nM
6,Ac-CAERFCD[Tle]Y[Trp(7-aza)]EYP[Phg]K(C16) (linker 1-6 via mXylyl(3)) [R3189],81.5 nM
7,"VERFCDGYWEYPGV ([cyclo-thioalkyl(1,5)]V-E-R-F-C-D-Tbg-Y-azaTrp-E-Y-P-Chg-Nvl) [R3184]",4 nM
8,Ac-KVERFD[NMeD][Tle]YWEYP[Chg]K (lactam 1-6) [R3196],3 nM
9,Ac-CVERFCD[Tle]Y[Trp(7-aza)]E[hPhe(3-Cl)]P[Chg][Nva] (linker 1-6 via mXylyl(3)) [R3179],83 nM
10,Ac-CVERFCD[Tle]Y[Phe(3-CH2NH2)]EYP[Chg][Nva] (linker 1-6 via mXylyl(3)) [R3181],1500 nM
11,Ac-KVERFD[NMeD][Tle]Y[Trp(7-aza)]EYP[Chg]K-NH2 (lactam 1-6; SMILES CC(=O)N[C@H]1CCCCNC(=O)C[C@@H](C(=O)N(C)[C@@H](CC(=O)O)C(=O)N[C@H](C(=O)N[C@@H](Cc2ccc(O)cc2)C(=O)N[C@@H](Cc2c[nH]c3ncccc23)C(=O)N[C@@H](CCC(=O)O)C(=O)N[C@@H](Cc2ccc(O)cc2)C(=O)N2CCC[C@H]2C(=O)N[C@H](C(=O)N[C@@H](CCCCN)C(N)=O)C2CCCCC2)C(C)(C)C)NC(=O)[C@H](Cc2ccccc2)NC(=O)[C@H](CCCNC(=N)N)NC(=O)[C@H](CCC(=O)O)NC(=O)[C@H](C(C)C)NC1=O) [R3192],1.5 nM
12,Ac-CVERFC[Thp][Tle]Y[Trp(7-aza)]EYP[Chg][Nva] (linker 1-6 via mXylyl(3)) [R3186],18 nM
13,Ac-KVERFD[NMeD][Tle]YWEYP[Chg]K(C16) (lactam 1-6) [R3195],62.5 nM
14,Ac-CVERFCD[Tle]Y[Trp(7-aza)]EWP[Chg][Nva] (linker 1-6 via mXylyl(3)) [R3177],12 nM
15,[(desamino)Cys][dA]ERFC[NMeD][Tle]Y[Trp(7-aza)]EYP[Chg]K(C16) (bridge 1-6) [R3199],112 nM
